Experimental data taken from the supplement of paper PMC7877785.
± gives the uncertainty stated by the source.

Test: self-splicing fitness, log relative to wild type (ln ratio); higher = more splicing; Tetrahymena group I intron in knt gene, E. coli kanamycin selection, DiMSum; sequences stand for … in CUCUCU…GGAGGGAAAAGUUAUCAGGCAUGCACCUGGUAGCUAGUCUUUAAACCAAUAGAUUGCAUCGGUUUAAAAGGCAAGACCGUCAAAUUGCGGGAAAGGGGUCAACAGCCGUUCAGUACCAAGUCUCAGGGGAAACUUUGAGAUGGCCUUGCAAAGGGUAUGGUAAUAAGCUGACGGACAUGGUCCUAACCACGCAGCCAAGUCCUAAGUCAACAGAUCUUCUGUUGAUAUGGAUGCAGUUCACAGACUAAAUGUCGGUCGGGGAAGAUGUAUUCUUCUCAUAAGAUAUAGUCGGACCUCUCCUUAAUGGGAGCUAGCGGAUGAAGUGAUGCAACACUGGAGCCGCUGGGAACUAAUUUGUAUGCGAAAGUAUAUUGAUUAGUUUUGGAGUACUCGUGGUCG
Outline: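 The eight P1ex-region nucleotides of an intron in the knt kanamycin-resistance gene on pET-22b(+) were all randomised and the library put into E. coli BL21(DE3). Six replicate transformations were grown overnight at 37°C or 30°C on LB agar with or without 25 μg/mL kanamycin, together with 100 μg/mL carbenicillin, 50 μM IPTG and 0.2% rhamnose. Colonies were pooled and amplicon-sequenced on an Illumina HiSeq 2500. Fitness from DiMSum is the error-weighted combination of wild-type-normalised replicate fold changes, kanamycin over none.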

Q: With ACCAAGCAAUAUUACGCAAG as the sequence, how does the “self-splicing fitness (ln)” value (30 °C) read?
A: -2.05 ± 0.072

Q: What about the “self-splicing fitness (ln)” value (37 °C) of the same sequence?
A: -2.12 ± 0.12

Q: What does the source list for AUUUAGCAAUAUUACGAGAA?
A: self-splicing fitness (ln) (30 °C): -2.09 ± 0.32; self-splicing fitness (ln) (37 °C): -1.2 ± 0.28

Q: Which results are given for AUUUAGCAAUAUUACGACAU?
A: self-splicing fitness (ln) (30 °C): 0.163 ± 0.014; self-splicing fitness (ln) (37 °C): 0.28 ± 0.033

Q: What does the source list for AAAUAGCAAUAUUACGUCGU?
A: self-splicing fitness (ln) (30 °C): -2.69 ± 0.17; self-splicing fitness (ln) (37 °C): -1.55 ± 0.16

Q: For AGGCAGCAAUAUUACGAUUC, which “self-splicing fitness (ln)” value (30 °C) is on record?
A: -1.71 ± 0.13

Q: What about the “self-splicing fitness (ln)” value (37 °C) of the same sequence?
A: -0.305 ± 0.16

Q: For AAAUAGCAAUAUUACGGCAU, which “self-splicing fitness (ln)” value (30 °C) is on record?
A: -0.403 ± 0.093

Q: And the “self-splicing fitness (ln)” value (37 °C)?
A: -0.183 ± 0.13

Q: With AGUAAGCAAUAUUACGAGCC as the sequence, how does the “self-splicing fitness (ln)” value (30 °C) read?
A: -0.632 ± 0.16

Q: And the “self-splicing fitness (ln)” value (37 °C)?
A: -0.472 ± 0.17

Q: Which “self-splicing fitness (ln)” value (30 °C) does the source give for CGUAAGCAAUAUUACGUGGG here?
A: -3.43 ± 0.16

Q: And the “self-splicing fitness (ln)” value (37 °C)?
A: -2.67 ± 0.15

Q: With GUGAAGCAAUAUUACGAUAA as the sequence, how does the “self-splicing fitness (ln)” value (30 °C) read?
A: -0.524 ± 0.15

Q: And the “self-splicing fitness (ln)” value (37 °C)?
A: 0.6 ± 0.15

Q: For AGCUAGCAAUAUUACGUGCU, which “self-splicing fitness (ln)” value (30 °C) is on record?
A: -3.87 ± 0.35

Q: And the “self-splicing fitness (ln)” value (37 °C)?
A: -2.44 ± 0.23

Q: With CAACAGCAAUAUUACGGCUG as the sequence, how does the “self-splicing fitness (ln)” value (30 °C) read?
A: -1.27 ± 0.077

Q: And the “self-splicing fitness (ln)” value (37 °C)?
A: -1.24 ± 0.11

Q: Which results are given for UUCCAGCAAUAUUACGCAGA?
A: self-splicing fitness (ln) (30 °C): -2.09 ± 0.21; self-splicing fitness (ln) (37 °C): -1.32 ± 0.16

Q: With UGUAAGCAAUAUUACGUGAC as the sequence, how does the “self-splicing fitness (ln)” value (30 °C) read?
A: -3.47 ± 0.33

Q: And the “self-splicing fitness (ln)” value (37 °C)?
A: -1.77 ± 0.23

Q: With CAUAAGCAAUAUUACGUUAU as the sequence, how does the “self-splicing fitness (ln)” value (30 °C) read?
A: -4.62 ± 0.3

Q: What about the “self-splicing fitness (ln)” value (37 °C) of the same sequence?
A: -2.58 ± 0.16

Q: With GUUAAGCAAUAUUACGAUUA as the sequence, how does the “self-splicing fitness (ln)” value (30 °C) read?
A: -1.04 ± 0.13

Q: What about the “self-splicing fitness (ln)” value (37 °C) of the same sequence?
A: -0.324 ± 0.11

Q: With CUAUAGCAAUAUUACGCGAA as the sequence, how does the “self-splicing fitness (ln)” value (30 °C) read?
A: -3.27 ± 0.2

Q: What about the “self-splicing fitness (ln)” value (37 °C) of the same sequence?
A: -3.06 ± 0.33

Q: With AGUUAGCAAUAUUACGUGGG as the sequence, how does the “self-splicing fitness (ln)” value (30 °C) read?
A: -4 ± 0.29

Q: And the “self-splicing fitness (ln)” value (37 °C)?
A: -3.07 ± 0.31

Q: Which “self-splicing fitness (ln)” value (30 °C) does the source give for UCAGAGCAAUAUUACGUUCA here?
A: -1.71 ± 0.27

Q: What about the “self-splicing fitness (ln)” value (37 °C) of the same sequence?
A: -2.48 ± 0.39

Q: Which “self-splicing fitness (ln)” value (30 °C) does the source give for UCAAAGCAAUAUUACGCACU here?
A: -2.08 ± 0.11

Q: And the “self-splicing fitness (ln)” value (37 °C)?
A: -2.5 ± 0.22

Q: Which “self-splicing fitness (ln)” value (30 °C) does the source give for CAUCAGCAAUAUUACGAGCC here?
A: -3.22 ± 0.31

Q: And the “self-splicing fitness (ln)” value (37 °C)?
A: -2.33 ± 0.41

Q: What does the source list for CCGCAGCAAUAUUACGGCUU?
A: self-splicing fitness (ln) (30 °C): -4.44 ± 0.27; self-splicing fitness (ln) (37 °C): -2.45 ± 0.21

Q: With CGCAAGCAAUAUUACGGGGG as the sequence, how does the “self-splicing fitness (ln)” value (30 °C) read?
A: -3.39 ± 0.18

Q: And the “self-splicing fitness (ln)” value (37 °C)?
A: -1.12 ± 0.13

Q: With AGCCAGCAAUAUUACGGUGC as the sequence, how does the “self-splicing fitness (ln)” value (30 °C) read?
A: -2.49 ± 0.12

Q: And the “self-splicing fitness (ln)” value (37 °C)?
A: -2.28 ± 0.17

Q: Which “self-splicing fitness (ln)” value (37 °C) does the source give for CUUAAGCAAUAUUACGUCGC here?
A: -1.65 ± 0.33

Q: For CUGGAGCAAUAUUACGGCAA, which “self-splicing fitness (ln)” value (30 °C) is on record?
A: -2.52 ± 0.25

Q: And the “self-splicing fitness (ln)” value (37 °C)?
A: -2.75 ± 0.3

Q: Which “self-splicing fitness (ln)” value (30 °C) does the source give for GAAAAGCAAUAUUACGAUUU here?
A: -0.346 ± 0.052

Q: What about the “self-splicing fitness (ln)” value (37 °C) of the same sequence?
A: -0.372 ± 0.073

Q: With CUUCAGCAAUAUUACGGAGA as the sequence, how does the “self-splicing fitness (ln)” value (30 °C) read?
A: -3.47 ± 0.21

Q: What about the “self-splicing fitness (ln)” value (37 °C) of the same sequence?
A: -3.04 ± 0.19

Q: What does the source list for CUAGAGCAAUAUUACGUUUG?
A: self-splicing fitness (ln) (30 °C): -1.33 ± 0.088; self-splicing fitness (ln) (37 °C): -0.528 ± 0.1

Q: With CUAGAGCAAUAUUACGGCUG as the sequence, how does the “self-splicing fitness (ln)” value (30 °C) read?
A: 0.203 ± 0.11

Q: And the “self-splicing fitness (ln)” value (37 °C)?
A: -0.255 ± 0.14

Q: Which “self-splicing fitness (ln)” value (37 °C) does the source give for UUGCAGCAAUAUUACGUCAC here?
A: -1.35 ± 0.29

Q: With GUUUAGCAAUAUUACGUAAA as the sequence, how does the “self-splicing fitness (ln)” value (30 °C) read?
A: -2.64 ± 0.18

Q: And the “self-splicing fitness (ln)” value (37 °C)?
A: -0.672 ± 0.18

Q: With CUUCAGCAAUAUUACGGUCA as the sequence, how does the “self-splicing fitness (ln)” value (30 °C) read?
A: -2.2 ± 0.25

Q: And the “self-splicing fitness (ln)” value (37 °C)?
A: -3.2 ± 0.24

Q: Which “self-splicing fitness (ln)” value (30 °C) does the source give for AUUUAGCAAUAUUACGAGCC here?
A: -1.74 ± 0.46

Q: What does the source list for AGGAAGCAAUAUUACGCGCC?
A: self-splicing fitness (ln) (30 °C): -1.61 ± 0.29; self-splicing fitness (ln) (37 °C): -0.761 ± 0.27

Q: For CCUAAGCAAUAUUACGAAUA, which “self-splicing fitness (ln)” value (30 °C) is on record?
A: -3.51 ± 0.35

Q: For UCGAAGCAAUAUUACGUCAU, which “self-splicing fitness (ln)” value (30 °C) is on record?
A: -2.62 ± 0.15

Q: And the “self-splicing fitness (ln)” value (37 °C)?
A: -2.58 ± 0.21

Q: For UGCCAGCAAUAUUACGAUUA, which “self-splicing fitness (ln)” value (30 °C) is on record?
A: -0.904 ± 0.075

Q: What about the “self-splicing fitness (ln)” value (37 °C) of the same sequence?
A: -0.743 ± 0.089

Q: For ACAAAGCAAUAUUACGUACG, which “self-splicing fitness (ln)” value (30 °C) is on record?
A: -1.84 ± 0.068

Q: What about the “self-splicing fitness (ln)” value (37 °C) of the same sequence?
A: -0.615 ± 0.087

Q: What does the source list for GGAUAGCAAUAUUACGGAGU?
A: self-splicing fitness (ln) (30 °C): -2.95 ± 0.34; self-splicing fitness (ln) (37 °C): -2.16 ± 0.42

Q: For UCCGAGCAAUAUUACGUUCC, which “self-splicing fitness (ln)” value (30 °C) is on record?
A: -3.5 ± 0.25

Q: What about the “self-splicing fitness (ln)” value (37 °C) of the same sequence?
A: -3.16 ± 0.32

Q: With CGACAGCAAUAUUACGUACC as the sequence, how does the “self-splicing fitness (ln)” value (30 °C) read?
A: -0.817 ± 0.12

Q: What about the “self-splicing fitness (ln)” value (37 °C) of the same sequence?
A: -0.217 ± 0.19

Q: For AUGAAGCAAUAUUACGCCUC, which “self-splicing fitness (ln)” value (30 °C) is on record?
A: -0.0224 ± 0.2

Q: What about the “self-splicing fitness (ln)” value (37 °C) of the same sequence?
A: -1.19 ± 0.33

Q: Which “self-splicing fitness (ln)” value (30 °C) does the source give for CAACAGCAAUAUUACGAGCG here?
A: -0.235 ± 0.051

Q: What about the “self-splicing fitness (ln)” value (37 °C) of the same sequence?
A: 0.702 ± 0.077

Q: Which “self-splicing fitness (ln)” value (30 °C) does the source give for GUUCAGCAAUAUUACGUACU here?
A: -1.24 ± 0.1

Q: And the “self-splicing fitness (ln)” value (37 °C)?
A: 0.162 ± 0.13

Q: What does the source list for GCCCAGCAAUAUUACGUUUC?
A: self-splicing fitness (ln) (30 °C): -1.36 ± 0.078; self-splicing fitness (ln) (37 °C): -1.37 ± 0.1

Q: Which “self-splicing fitness (ln)” value (30 °C) does the source give for UCCUAGCAAUAUUACGCUCG here?
A: -3.13 ± 0.21

Q: With CAAUAGCAAUAUUACGCCAC as the sequence, how does the “self-splicing fitness (ln)” value (30 °C) read?
A: -2.84 ± 0.28

Q: With GCUAAGCAAUAUUACGCUCG as the sequence, how does the “self-splicing fitness (ln)” value (30 °C) read?
A: -0.473 ± 0.094

Q: And the “self-splicing fitness (ln)” value (37 °C)?
A: -0.832 ± 0.13

Q: Which results are given for GCAAAGCAAUAUUACGACAU?
A: self-splicing fitness (ln) (30 °C): -0.736 ± 0.012; self-splicing fitness (ln) (37 °C): -0.158 ± 0.032
